To fix the notation:
T1: adrenomedullin receptor (receptor binding assay)
T1 chain 1: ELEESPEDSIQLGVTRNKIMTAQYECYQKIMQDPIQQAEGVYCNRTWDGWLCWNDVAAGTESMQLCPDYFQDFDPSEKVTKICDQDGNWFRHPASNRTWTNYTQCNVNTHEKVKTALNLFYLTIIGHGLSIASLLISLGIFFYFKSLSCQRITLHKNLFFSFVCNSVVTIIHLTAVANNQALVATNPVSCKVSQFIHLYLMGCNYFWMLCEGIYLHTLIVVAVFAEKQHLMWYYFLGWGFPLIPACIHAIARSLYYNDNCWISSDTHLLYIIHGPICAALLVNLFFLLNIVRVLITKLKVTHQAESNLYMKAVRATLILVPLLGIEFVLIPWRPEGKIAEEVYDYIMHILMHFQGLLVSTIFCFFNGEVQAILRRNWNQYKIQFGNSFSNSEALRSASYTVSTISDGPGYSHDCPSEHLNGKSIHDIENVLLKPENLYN
T1 chain 2: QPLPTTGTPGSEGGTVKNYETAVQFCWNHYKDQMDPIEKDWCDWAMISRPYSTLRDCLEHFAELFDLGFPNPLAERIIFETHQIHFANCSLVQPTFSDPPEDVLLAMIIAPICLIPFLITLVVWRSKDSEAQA

Ends that are not written are not given here.

The source of these data is patent publication US20080207501A1 (AMYLIN PHARMACEUTICALS, published 2008).

Sequence of amylin receptor (nucleus accumbens membranes prepared from rat brain) (P32214 25-516): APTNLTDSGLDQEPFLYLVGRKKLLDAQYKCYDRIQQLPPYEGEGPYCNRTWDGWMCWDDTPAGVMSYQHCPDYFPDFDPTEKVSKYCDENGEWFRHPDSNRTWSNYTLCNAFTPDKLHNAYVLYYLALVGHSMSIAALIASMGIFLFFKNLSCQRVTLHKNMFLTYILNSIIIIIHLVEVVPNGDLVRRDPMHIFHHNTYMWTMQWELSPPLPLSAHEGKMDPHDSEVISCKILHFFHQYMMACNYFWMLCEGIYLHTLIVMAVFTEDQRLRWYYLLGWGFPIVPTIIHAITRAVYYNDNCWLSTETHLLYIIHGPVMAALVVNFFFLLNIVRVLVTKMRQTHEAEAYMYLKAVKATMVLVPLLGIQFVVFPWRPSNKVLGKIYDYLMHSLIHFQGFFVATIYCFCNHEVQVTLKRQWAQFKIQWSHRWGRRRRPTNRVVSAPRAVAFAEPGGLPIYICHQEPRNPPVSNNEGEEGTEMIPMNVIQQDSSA
T3 sequence (O60894 27-148 limits assumed, chain 2 of 2, one chain of several): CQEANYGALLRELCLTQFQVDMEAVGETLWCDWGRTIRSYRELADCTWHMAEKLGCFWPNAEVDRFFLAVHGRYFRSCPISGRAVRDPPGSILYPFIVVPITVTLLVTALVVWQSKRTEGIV

The first assay deals with T2, calcitonin receptor (receptor binding assay).
T2 construct: also called rCalcitonin RBA; CT
Description: calcitonin receptor binding assay, method not described.
Turning to VGCVLGTCQVQNLSHRLWQLMGPAGRQDSAPVEPSSPHSY-NH2 (ends and bridges not checked) [AFP-6 analog SEQ ID NO: 35], the IC50 (as a rule, the midpoint of a concentration-inhibition curve) worked out at 153 nM.
As for GCSNLSTCQVQNLSHRLWQLRQDSAPVEPSSPHSY-NH2 (ends and bridges not checked) [AFP-6 analog SEQ ID NO: 38], the half-inhibitory concentration (IC50) is 17 nM.
In the case of GCGNLSTCQVQNLSHRLWQLRQDSAPVEPSSPHSY-NH2 (ends and bridges not checked) [AFP-6 analog SEQ ID NO: 39], the IC50 was 31 nM.
Turning to GCNTATCQVQNLSHRLWQLRQDSAPVDPSSPHSY-NH2 (ends and bridges not checked) [AFP-6 analog SEQ ID NO: 31], the IC50 stood at 51 nM.
For VCNTATCQVQNLSHRLWQLRQDSAPVDPSSPHSY-NH2 (ends and bridges not checked) [AFP-6 analog SEQ ID NO: 30], the IC50 stood at 128 nM.
GCNTATCQVQNLSHRLWQLRQDSAPVEPSSPHSY-NH2 (ends and bridges not checked) [AFP-6 analog SEQ ID NO: 37]: the half-inhibitory concentration (IC50) is 121 nM.
Regarding TQAQLLRVGCSNLSTCQVQNLSHRLWQLMGPAGRQDSAPVDPSSPHSY-NH2 (ends and bridges not checked) [AFP-6 analog SEQ ID NO: 20], the IC50 came out at 16 nM.

Another assay addresses T1, adrenomedullin receptor (receptor …). The assay is described as follows: adrenomedullin receptor binding assay, method not described.
For GMVLGTMQVQNLSHRLWQLMGPAGRQDSAPVDPSSPHSY-NH2 [AFP-6 analog SEQ ID NO: 26], the IC50 stood at 37 nM.
TQAQLLRVGMVLGTMQVQNLSHRLWQLMGPAGRQDSAPVDPSSPHSY-NH2 [AFP-6 analog SEQ ID NO: 25] came in with an IC50 of 120 nM.
Consider VGMVLGTMQVQNLSHRLWQLRQDSAPVDPSSPHSY-NH2 [AFP-6 analog SEQ ID NO: 27], for which the 50% inhibitory concentration (IC50) stood at 1000 nM.
Still for that read-out and setting: next, TQAQLLRVGCVLGTCQVQNLSHRLWQLDSAPVDPSSPHSY-NH2 (ends and bridges not checked) [AFP-6 analog SEQ ID NO: 17]: 304 nM.
GCVLGTCQVQNLSHRLWQLRQESAPVEPSSPHSY-NH2 (ends and bridges not checked) [AFP-6 analog SEQ ID NO: 40] came in with an IC50 of 1000 nM.
In the case of VQNLSHRLWQLMGPAGRQDSAPVDPSSPHSY-NH2 [AFP-6 analog SEQ ID NO: 14], the IC50 was found to be 59 nM.
Same read-out and setting: the figure for VGCVLGTCQVQNLSHRLWQLMGPAGRQDSAPVEPSSPHSY-NH2 (ends and bridges not checked) [AFP-6 analog SEQ ID NO: 35] is 37 nM; for GCGNLSTCQVQNLSHRLWQLRQDSAPVEPSSPHSY-NH2 (ends and bridges not checked) [AFP-6 analog SEQ ID NO: 39] it is 1000 nM; for GCNTATCQVQNLSHRLWQLRQDSAPVDPSSPHSY-NH2 (ends and bridges not checked) [AFP-6 analog SEQ ID NO: 31] it is 1000 nM.
As to VCNTATCQVQNLSHRLWQLRQDSAPVDPSSPHSY-NH2 (ends and bridges not checked) [AFP-6 analog SEQ ID NO: 30], the IC50 was determined as 1000 nM.
In turn, GCNTATCQVQNLSHRLWQLRQDSAPVEPSSPHSY-NH2 (ends and bridges not checked) [AFP-6 analog SEQ ID NO: 37] displayed an IC50 of 1000 nM.
With TQAQLLRVGCSNLSTCQVQNLSHRLWQLMGPAGRQDSAPVDPSSPHSY-NH2 (ends and bridges not checked) [AFP-6 analog SEQ ID NO: 20], the IC50 came out at 36 nM.

Another assay concerns the target T3, CGRP receptor (membranes prepared from SK-N-MC cells) (UniProt Q16602 23-461; O60894 27-148, limits assumed).
T3 construct: whole, on cells; Endogenous receptor in SK-N-MC cell membranes; also called CGRP receptors; CGRP RBA
The assay is described as follows: radioligand displacement, 125I-hCGRP, SK-N-MC cell membranes. As to the method:
(§1) Solutions were incubated for 60 minutes at 2 C. […] Filters were washed immediately before filtration with 5 ml cold PBS, and immediately after filtration with 15 ml cold PBS. […] Competition curves were generated by measuring binding in the presence of 10⁻¹² to 10⁻⁶ M unlabeled test compound and were analyzed by nonlinear regression using a 4-parameter logistic equation (INPLOT program; […] Software, San Diego, Calif.).
Background: Displacement assays read how much labelled ligand stays bound in the presence of the test substance.
For GMVLGTMQVQNLSHRLWQLMGPAGRQDSAPVDPSSPHSY-NH2 [AFP-6 analog SEQ ID NO: 26], the IC50 is 26 nM.
TQAQLLRVGMVLGTMQVQNLSHRLWQLMGPAGRQDSAPVDPSSPHSY-NH2 [AFP-6 analog SEQ ID NO: 25] displayed an IC50 of 80 nM.
Consider TQAQLLRVGCVLGTCQVQNLSHRLWQLDSAPVDPSSPHSY-NH2 (ends and bridges not checked) [AFP-6 analog SEQ ID NO: 17], for which the IC50 amounted to 10.5 nM.
Still for that read-out and setting: the figure for VGCVLGTCQVQNLSHRLWQLMGPAGRQDSAPVEPSSPHSY-NH2 (ends and bridges not checked) [AFP-6 analog SEQ ID NO: 35] is 4.7 nM.
In the case of GCSNLSTCQVQNLSHRLWQLRQDSAPVEPSSPHSY-NH2 (ends and bridges not checked) [AFP-6 analog SEQ ID NO: 38], the concentration for half-maximal inhibition (IC50) came to 208 nM.
As for GCNTATCQVQNLSHRLWQLRQDSAPVDPSSPHSY-NH2 (ends and bridges not checked) [AFP-6 analog SEQ ID NO: 31], the IC50 stood at 18 nM.
The same measure, in the same setting: the figure for VCNTATCQVQNLSHRLWQLRQDSAPVDPSSPHSY-NH2 (ends and bridges not checked) [AFP-6 analog SEQ ID NO: 30] is 37 nM.
As to GCNTATCQVQNLSHRLWQLRQDSAPVEPSSPHSY-NH2 (ends and bridges not checked) [AFP-6 analog SEQ ID NO: 37], the IC50 came to 130 nM.
Still for that read-out and setting: the figure for TQAQLLRVGCSNLSTCQVQNLSHRLWQLMGPAGRQDSAPVDPSSPHSY-NH2 (ends and bridges not checked) [AFP-6 analog SEQ ID NO: 20] is 25 nM.

The next assay addresses amylin receptor (nucleus accumbens membranes prepared from rat brain) (rat, UniProt P32214 25-516). Description: radioligand displacement, 125I-rat amylin, rat nucleus accumbens membranes. Here is the method: Male Sprague-Dawley® rats (200-250) grams were sacrificed by decapitation. Brains were removed and place in cold phosphate-buffered saline (PBS). From the ventral surface, cuts were made rostral to the hypothalamus, bounded laterally by the olfactory tracts and extending at a 45° angle medially from these tracts. This basal forebrain tissue, containing the nucleus accumbens and surrounding regions, was weighed and homogenized in ice-cold 20 mM HEPES buffer (20 mM HEPES acid, pH adjusted to 7.4 with NaOH at 23° C.). Membranes were washed three times in fresh buffer by centrifugation for 15 minutes at 48,000×g. The final membrane pellet was resuspended in 20 mM HEPES buffer containing 0.2 mM phenylmethylsulfonyl fluoride (PMSF).
as §1
For GMVLGTMQVQNLSHRLWQLMGPAGRQDSAPVDPSSPHSY-NH2 [AFP-6 analog SEQ ID NO: 26], the IC50 came to 48 nM.
On to TQAQLLRVGMVLGTMQVQNLSHRLWQLMGPAGRQDSAPVDPSSPHSY-NH2 [AFP-6 analog SEQ ID NO: 25], for which the IC50 turned out to be 139 nM.
In the case of TQAQLLRVGCVLGTCQVQNLSHRLWQLDSAPVDPSSPHSY-NH2 (ends and bridges not checked) [AFP-6 analog SEQ ID NO: 17], the half-maximal inhibitory concentration (IC50) turned out to be 209 nM.
Consider VGCVLGTCQVQNLSHRLWQLMGPAGRQDSAPVEPSSPHSY-NH2 (ends and bridges not checked) [AFP-6 analog SEQ ID NO: 35], for which the IC50 is 17 nM.
GCSNLSTCQVQNLSHRLWQLRQDSAPVEPSSPHSY-NH2 (ends and bridges not checked) [AFP-6 analog SEQ ID NO: 38]: the IC50 is 9.9 nM.
In turn, GCGNLSTCQVQNLSHRLWQLRQDSAPVEPSSPHSY-NH2 (ends and bridges not checked) [AFP-6 analog SEQ ID NO: 39] showed an IC50 of 14 nM.
On to GCNTATCQVQNLSHRLWQLRQDSAPVDPSSPHSY-NH2 (ends and bridges not checked) [AFP-6 analog SEQ ID NO: 31], for which the IC50 is 12 nM.
The same measure, in the same setting: the figure for VCNTATCQVQNLSHRLWQLRQDSAPVDPSSPHSY-NH2 (ends and bridges not checked) [AFP-6 analog SEQ ID NO: 30] is 19 nM; for GCNTATCQVQNLSHRLWQLRQDSAPVEPSSPHSY-NH2 (ends and bridges not checked) [AFP-6 analog SEQ ID NO: 37] it is 39 nM.
TQAQLLRVGCSNLSTCQVQNLSHRLWQLMGPAGRQDSAPVDPSSPHSY-NH2 (ends and bridges not checked) [AFP-6 analog SEQ ID NO: 20] gave a 50% inhibitory concentration (IC50) of 1.9 nM.
